This experiment addresses NpDps4 (Dps4 from Nostoc punctiforme ATCC 29133) (Nostoc punctiforme ATCC 29133). Put plainly: crystal structure; sitting-drop vapour diffusion, 25% SOKALAN HP 66, 0.1 M HEPES pH 7.0, 0.2 M NaOAc, room temperature; metal-free, Fe2+-soaked and Zn2+-soaked crystals; four molecules in the asymmetric unit, a third of the dodecameric hollow sphere.

The stoichiometry N is a count of units in the complex or per binding partner.

With “NpDps4 (Dps4 from Nostoc punctiforme ATCC 29133) (natural protein)”, the stoichiometry N amounted to 12.

The record behind these values is article PMC6675082.
